Measured values: PMC8153946, “Substrate Selectivity of Coumarin Derivatives by Human CYP1 Enzymes: In Vitro Enzyme Kinetics and In Silico Modeling” (ACS Omega, 2021)

How the values were obtained:
Experiment in all cases: Michaelis–Menten kinetics of oxidation to fluorescent 7-hydroxy metabolite by recombinant CYP1B1
Format in all cases: biochemical, human
Conditions in all cases: other: recombinant CYP1B1, 100 mM Tris-HCl pH 7.4, 37 °C, 95% confidence interval in brackets
[1] = substrate: CCOc1ccc2ccc(=O)oc2c1
Experimental: (§1) Baculovirus-insect cell-expressed human CYP1A1, CYP1A2, CYP1B1, CYP2A6, CYP2B6, CYP2C8, CYP2C9, CYP2C19, CYP2D6, CYP2E1, CYP3A4, CYP3A5, and CYP3A7 were purchased from BD Biosciences Discovery Labware (Woburn, MA, USA) and used according to the manufacturer’s instructions.
(§2) The kinetic assays were carried out in 100 μL volume containing 100 mM Tris-HCl buffer pH 7.4, 0–40 μM coumarin derivative or 0–10 μM 7-ethoxyresorufin, 1–25 nM recombinant CYP or 0–0.1 g/L microsomal protein, and 20% NADPH regenerating system. Incubations took place at 37 °C in 96-multiwell plates; the fluorescence was measured with a Victor[2] plate reader (PerkinElmer Life Sciences, Turku, Finland). The detailed conditions are described in the figures and tables. The reaction was started by adding NADPH, and fluorescence was measured at 2 min intervals for 40 min using excitation at 405 nm and emission at 460 nm for oxidation of coumarin derivatives[18] and excitation at 570 nm and emission at 615 nm for ethoxyresorufin or pentoxyresorufin 7-O-dealkylations. Incubations without the substrate, enzyme, or NADPH were used as blank reactions. Resorufin was used as a standard, and 3-(4-fluorophenyl)-7-hydroxycoumarin was used as the surrogate standards to calculate the amount of product formed. The linear phase of the reactions was used for calculations.
(§3) Enzyme kinetic parameters were analyzed using the nonlinear Michaelis–Menten equation v = Vmax × S/(Km + S), in which v is the rate for 7-hydroxylation of a coumarin derivative, S is its concentration, and Vmax value is the limiting rate of the reaction of 7-hydroxylation, which reached a half-maximal rate at a concentration of Km for the substrate.

[2] = substrate: O=c1oc2ccc(O)cc2cc1-c1cccc(O)c1
Experimental: as §1, §2, §3

[3] = substrate: CC(=O)Oc1cccc(-c2cc3cc(Cl)ccc3oc2=O)c1
Experimental: as §1, §2, §3

[4] = substrate: CCOc1ccc2nc3ccc(=O)cc-3oc2c1
Experimental: as §1, §2, §3

[5] = substrate: COc1cccc(-c2cc3cc(OC)ccc3oc2=O)c1
Experimental: as §1, §2, §3

[6] = substrate: CC(=O)Oc1ccc(-c2cc3cc(Cl)ccc3oc2=O)cc1
Experimental: as §1, §2, §3

[7] = substrate: CCCCCOc1ccc2nc3ccc(=O)cc-3oc2c1
Experimental: as §1, §2, §3

B1: human CYP1B1 (Homo sapiens) (protein)
chain: MGTSLSPNDPWPLNPLSIQQTTLLLLLSVLATVHVGQRLLRQRRRQLRSAPPGPFAWPLIGNAAAVGQAAHLSFARLARRYGDVFQIRLGSCPIVVLNGERAIHQALVQQGSAFADRPAFASFRVVSGGRSMAFGHYSEHWKVQRRAAHSMMRNFFTRQPRSRQVLEGHVLSEARELVALLVRGSADGAFLDPRPLTVVAVANVMSAVCFGCRYSHDDPEFRELLSHNEEFGRTVGAGSLVDVMPWLQYFPNPVRTVFREFEQLNRNFSNFILDKFLRHCESLRPGAAPRDMMDAFILSAEKKAAGDSHGGGARLDLENVPATITDIFGASQDTLSTALQWLLLLFTRYPDVQTRVQAELDQVVGRDRLPCMGDQPNLPYVLAFLYEAMRFSSFVPVTIPHATTANTSVLGYHIPKDTVVFVNQWSVNHDPLKWPNPENFDPARFLDKDGLINKDLTSRVMIFSVGKRRCIGEELSKMQLFLFISILAHQCDFRANPNEPAKMNFSYGLTIKPKSFKVNVTLRESMELLDSAVQNLQAKETCQ
notes: purchased BD Biosciences Discovery Labware (Woburn, MA, USA); host or cells: baculovirus-insect cells
For B1, the Km [1] was 120 (0–282) μM, the kcat [1] was 1.75 (0–3.54) mol/(min·mol CYP) and the Km [2] was 0.53 (0–1.1) μM. The kcat [2] was 0.29 (0.25–0.34) mol/(min·mol CYP), the Km [3] was 1.1 (0.5–1.7) μM and the kcat [3] was 1.1 (0.96–1.2) mol/(min·mol CYP). For the same protein, the Km [4] was 0.096 (0.072–0.119) μM, the kcat [4] was 3.3 (3.0–3.6) mol/(min·mol CYP) and the Km [5] was 0.43 (0.24–0.61) μM. For the same protein, the kcat [5] was 9.3 (8.2–10.4) mol/(min·mol CYP), the Km [6] was 0.095 (0.04–0.15) μM and the kcat [6] was 5.1 (4.7–5.5) mol/(min·mol CYP). For the same protein, the Km [7] was 2.59 (1.65–3.53) μM and the kcat [7] was 0.37 (0.28–0.46) mol/(min·mol CYP).
